Measurements as given in publication PMC13399505.

How the values were obtained:
[1] = target: BUNV ∆7-Gc-HA (HA-tagged head/stalk-deleted Gc glycoprotein expressed by rBUNV-∆7-Gc-HA) (Bunyamwera orthobunyavirus); assay: affinity purification with mass spectrometry; A549 (mammalian) cells mock-infected or infected at MOI 1, 24 hpi; anti-HA immunoprecipitation of Gc-HA, TMTpro 16plex TMT-MS of the bead fractions, three biological repeats; abundances normalised to common Gc peptides
[2] = target: BUNV ∆7-Gc-HA (HA-tagged head/stalk-deleted Gc glycoprotein expressed by rBUNV-∆7-Gc-HA) (Bunyamwera orthobunyavirus); assay: affinity purification with mass spectrometry; C6/36 (insect) cells mock-infected or infected at MOI 1, 24 hpi; anti-HA immunoprecipitation of Gc-HA, TMTpro 16plex TMT-MS of the bead fractions, three biological repeats; abundances normalised to common Gc peptides

Q: With “BUNV nucleocapsid protein (NP) (from UniProt P16495 1-233) (natural protein)” as the substance, how does the log2 fold change of NP precipitated, WT-Gc-HA over ∆7-Gc-HA (log2 fold change) [1] read?
A: The log2 fold change of NP precipitated, WT-Gc-HA over ∆7-Gc-HA (log2 fold change) was 0.24.

Q: What about the log2 fold change of NP precipitated, WT-Gc-HA over ∆7-Gc-HA (log2 fold change) [2] of the same substance?
A: The log2 fold change of NP precipitated, WT-Gc-HA over ∆7-Gc-HA (log2 fold change) was 2.76.
